Laboratory results as given in the supplement of paper PMC7125110.
± gives the standard error. This sample holds only a part of the variants without activity.

B1: glmS ribozyme (parent)
chain: AUAAAAGCGCCAGAACUACAGAAAUGUAGUUGACGAGGAGGAGGUUUAUCGAAUUUUCGGCGGAUGCCUCCAAA

Legend:
Settings in all cases: with glucosamine-6-phosphate
glucosamine-6-phosphate [1] = variants of: B1; assay: self-cleavage kobs at 640 uM GlcN6P; higher = faster cleavage; RNA array
How it was run: (§1)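 kcat and KM were obtained from weighted Michaelis–Menten fits across concentrations of kobs values. Those came from one- or two-exponential decay fits to per-tile medians normalised to baseline and to non-cleaving reference variants. The variants were barcoded ribozymes transcribed in situ by E. coli RNA polymerase on sequenced MiSeq chips and tracked through a hybridised Cy3 probe at 37 °C, with 40 μM to 10 mM glucosamine-6-phosphate in HEPES/KCl/Mg(OAc)2 buffer flowed in.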

glucosamine-6-phosphate [2] = variants of: B1; assay: self-cleavage kobs at 10000 uM GlcN6P; higher = faster cleavage; RNA array
How it was run: as §1

glucosamine-6-phosphate [3] = variants of: B1; assay: self-cleavage kobs at 2500 uM GlcN6P; higher = faster cleavage; RNA array
How it was run: as §1

| Variant | self-cleavage kobs at 640 uM GlcN6P (glucosamine-6-phosphate [1]) [s⁻¹] | self-cleavage kobs at 10000 uM GlcN6P (glucosamine-6-phosphate [2]) [s⁻¹] | self-cleavage kobs at 2500 uM GlcN6P (glucosamine-6-phosphate [3]) [s⁻¹] |
| --- | --- | --- | --- |
| AUAAAAGCGCCAGAACUACAGAAAUGUAGUUGACGAGGAGGAGGUUUAUCCAAUUUUCGGCGGCUGCCUCCAAA [G51C A64C] | < 1e-05 | < 1e-05 |  |
| AUAAAAGCGCCAGAACUACAGAAAUGUACUUGACGAGGAGGAGGUUUAUCGAAUUCUCGGCGGAUGCCUCCAAA [G29C U56C] | 0.000147 ± 3.2e-05 | 0.00068 ± 0.00019 | 0.000116 ± 2.1e-05 |
| AUAAAAGCGGCAGAACUACAGAAAUGUAGUUGACGAGGAGGAGUUUUAUCGAAUUUUCGGCGGAUGCCUUCAAA [C10G G44U C70U] | < 1e-05 |  |  |
| AUAAAAGCGCAAGAACUACAGAAAUGUAGGUGACGAGGAGGAGGUUUAUCGAAGUUUCGGCGGAUGCCUCCAAA [C11A U30G U54G] | 4.96e-05 ± 1.4e-05 |  | 0.000114 ± 2.1e-05 |
| AUAAAAGCGCCUGAACUACAGAAAUGUAGCUGACGAGGAGGAGGUUUAUCGACUUUUCGGCGGAUGCCUCCAAA [A12U U30C A53C] | 0.000316 ± 0.0001 | 0.00132 ± 0.00056 | 0.000389 ± 0.00012 |
| AUAAAAGCGCUAGAACUACAGAAAUGUAGAUGAUGGGGAGGAGGUUUAUCGAAUUUUCGGCGGAUGCCACCAAA [C11U U30A C34U A36G U69A] | 0.000685 ± 0.00016 |  |  |
| AUAAAAGCGCCAGAACUACAGAAAUGUAGUUGACGAGGCGGAGGGUUAUCGAAUUGUCGGCGGAUGCCUCCAAA [A39C U45G U56G] | 7.85e-05 ± 2.3e-05 |  |  |
| AUAAAAGCGCCAGAACUACAGAAAUGUAGUUGACGAGGAGGAGGUUUAUCGAAUUUUCGGUGGAUGGCUCCAAA [C61U C67G] | < 1e-05 |  |  |
| AUAAAAGUGCCAGAACUACAGAAAUGUAGUUGACGAGGAGGAAGUUUAUCGAAUUUUGGGCGGAUGCCUCCAAA [C8U G43A C58G] | < 1e-05 |  | < 1e-05 |
| AUAAAAGCGCCAGAACUACAGAAAUGUAGUUGACGAGGAGGAGGUUUAUCGAGGGUUCGGAGGAUGCCUUCAAA [A53G U54G U55G C61A C70U] | 0.000595 ± 0.00019 |  | 7.21e-05 ± 2.5e-05 |
| AUAAAAGCGCCAGAACUACAGAAAUGUAGUUGACGAGGAGGUGUUUUAUCGAAUUUUCGGGGGAUGCCUCCAAA [A42U G44U C61G] | < 1e-05 |  | < 1e-05 |
| AUAAAAGCGACAGAACUACAGAAAUGUAGUUGACGAGGAGGAGGUCAAUCGAAUUUUCAGCGGAUGCCUCCAAA [C10A U46C U47A G59A] | < 1e-05 |  | < 1e-05 |
| AUAAAAGCGCCAGAACUACAGAAAUGUAGAUGACGAGGAUGAGGAUUAUCGAAUUUUCGGCGGAUGCCUCCAAA [U30A G40U U45A] | 4.42e-05 ± 2.1e-05 |  | 0.000226 ± 5.7e-05 |
| AUAAAAGCGCCAGAACUACAGAAAUGUAGGUGACGACGAGAAGGUUUUUCGAUUUUUCGGCGGAUGCGUUCAAA [U30G G37C G41A A48U A53U C68G C70U] | < 1e-05 |  |  |
| AUAAAAGCGCCAGAACUACAGAAAUGUAGCUGACGAGGAGGAGGUUUAUCAAAUUUUCGGCGGAGGCCUCCAAA [U30C G51A U65G] | < 1e-05 |  | < 1e-05 |
| AUAAAAGCGCCAGAACUACAGAAAUGUAGUCAACGAGGGGGAGGUUUAUCGAAUUUUCGGCGGAUGCCUCCAAA [U31C G32A A39G] | 0.000252 ± 4.9e-05 | 0.0014 ± 0.00028 |  |
| AUAAAAGCGCCAGAACUACAGAAAUGUAGUUGACGAGGGGGAGGUUUAUCGAAUUUUGGCCGGAUGCCUCCAAA [A39G C58G G60C] | < 1e-05 | < 1e-05 | < 1e-05 |
| AUAAAAGCGCCAGAACUACAGAAAUGUAUUUGACGAGGAAGAGGUUUAUCGAAUUUUCGGCGGAUGCCUUCAAA [G29U G40A C70U] | 3.68e-05 ± 1.2e-05 |  |  |
| AUAAAAGCUCCAGAACUACAGAAAUGUAGUUGAAGAGGAGGAGGUUUAUCGAAUUUUCUGCGAAUGCCUCCAAA [G9U C34A G59U G63A] | < 1e-05 |  | < 1e-05 |
| AUAAAAGCGCCAGAACUACAGAAAUGUAGUCGACGAGGAGGAGGUUUAUCGAAUUUUCGUCGCAUGCCUCCAAA [U31C G60U G63C] | < 1e-05 |  |  |
| AUAAAAGCGUCAGAACUACAGAAAUGUAGUUGACGAGGUGGAGGUUUAUCGAAUUUUCGGCAGAUGCCUCCAAA [C10U A39U G62A] | < 1e-05 |  |  |
